Laboratory results published in article PMC9552509.

Target: TACC3 (UniProt Q9Y6A5)
Assay: co-IP with anti-FLAG and anti-TACC3
Details: reference: wild-type stathmin1-FLAG; sites S16

In the case of “stathmin1 (from UniProt P16949) stathmin1 S16A-FLAG”, the “binding against the reference” value is reported as “lost”.
